Source: patent US20140050720A1 (Scripps Research, published 2014)

The binders below were run against GLP-1 receptor on HEK293 cells carrying a cAMP responsive luciferase reporter gene (UniProt P43220 24-463, limits assumed) (assay: cell-based or functional assay).

Binder	RLU (cAMP responsive luciferase reporter) at 1.26953 nM	RLU (cAMP responsive luciferase reporter) at 2.53906 nM	RLU (cAMP responsive luciferase reporter) at 5.07813 nM	RLU (cAMP responsive luciferase reporter) at 10.15625 nM	RLU (cAMP responsive luciferase reporter) at 20.3125 nM	RLU (cAMP responsive luciferase reporter) at 40.625 nM	RLU (cAMP responsive luciferase reporter) at 81.25 nM	RLU (cAMP responsive luciferase reporter) at 162.5 nM	RLU (cAMP responsive luciferase reporter) at 325 nM	RLU (cAMP responsive luciferase reporter) at 650 nM
BLV1H12-GLP-1 fusion antibody (antibody, human IgG1) heavy: not shown light: QAVLNQPSSVSGSLGQRVSITCSGSSSNVGNGYVSWYQLIPGSAPRTLIYGDTSRASGVPDRFSGSRSGNTATLTISSLQAEDEADYFCASAEDSSSNAVFGSGTTLTVLGQPKSPPSVTLFPPSTEELNGNKATLVCLISDFYPGSVTVVWKADGSTITRNVETTRASKQSNSKYAASSYLSLTSSDWKSKGSYSCEVTHEGSTVTKTVKPSECS	18600 RLU	24500 RLU	43200 RLU	66600 RLU	105000 RLU	144000 RLU	151000 RLU	167000 RLU	171000 RLU	160000 RLU
BLV1H12-Ex-4 fusion antibody (antibody, human IgG1) heavy: not shown light: QAVLNQPSSVSGSLGQRVSITCSGSSSNVGNGYVSWYQLIPGSAPRTLIYGDTSRASGVPDRFSGSRSGNTATLTISSLQAEDEADYFCASAEDSSSNAVFGSGTTLTVLGQPKSPPSVTLFPPSTEELNGNKATLVCLISDFYPGSVTVVWKADGSTITRNVETTRASKQSNSKYAASSYLSLTSSDWKSKGSYSCEVTHEGSTVTKTVKPSECS	6120 RLU	6360 RLU	8500 RLU	10400 RLU	19300 RLU	28000 RLU	54800 RLU	90700 RLU	118000 RLU	135000 RLU
BLV1H12-GLP-1 clip fusion antibody (antibody, cleaved by Factor Xa at the IEGR site in front of GLP-1, releasing the N-terminus of GLP-1) heavy: not shown light: QAVLNQPSSVSGSLGQRVSITCSGSSSNVGNGYVSWYQLIPGSAPRTLIYGDTSRASGVPDRFSGSRSGNTATLTISSLQAEDEADYFCASAEDSSSNAVFGSGTTLTVLGQPKSPPSVTLFPPSTEELNGNKATLVCLISDFYPGSVTVVWKADGSTITRNVETTRASKQSNSKYAASSYLSLTSSDWKSKGSYSCEVTHEGSTVTKTVKPSECS	4740 RLU	5800 RLU	4400 RLU	5200 RLU	7780 RLU	13600 RLU	33800 RLU	65800 RLU	101000 RLU	141000 RLU

Same assay, conditions: not given

Binder	RLU (cAMP responsive luciferase reporter) at 1300 nM
BLV1H12-GLP-1 fusion antibody (antibody, human IgG1) heavy: not shown light: QAVLNQPSSVSGSLGQRVSITCSGSSSNVGNGYVSWYQLIPGSAPRTLIYGDTSRASGVPDRFSGSRSGNTATLTISSLQAEDEADYFCASAEDSSSNAVFGSGTTLTVLGQPKSPPSVTLFPPSTEELNGNKATLVCLISDFYPGSVTVVWKADGSTITRNVETTRASKQSNSKYAASSYLSLTSSDWKSKGSYSCEVTHEGSTVTKTVKPSECS	185000 RLU
BLV1H12-Ex-4 fusion antibody (antibody, human IgG1) heavy: not shown light: QAVLNQPSSVSGSLGQRVSITCSGSSSNVGNGYVSWYQLIPGSAPRTLIYGDTSRASGVPDRFSGSRSGNTATLTISSLQAEDEADYFCASAEDSSSNAVFGSGTTLTVLGQPKSPPSVTLFPPSTEELNGNKATLVCLISDFYPGSVTVVWKADGSTITRNVETTRASKQSNSKYAASSYLSLTSSDWKSKGSYSCEVTHEGSTVTKTVKPSECS	160000 RLU
BLV1H12-GLP-1 clip fusion antibody (antibody, cleaved by Factor Xa at the IEGR site in front of GLP-1, releasing the N-terminus of GLP-1) heavy: not shown light: QAVLNQPSSVSGSLGQRVSITCSGSSSNVGNGYVSWYQLIPGSAPRTLIYGDTSRASGVPDRFSGSRSGNTATLTISSLQAEDEADYFCASAEDSSSNAVFGSGTTLTVLGQPKSPPSVTLFPPSTEELNGNKATLVCLISDFYPGSVTVVWKADGSTITRNVETTRASKQSNSKYAASSYLSLTSSDWKSKGSYSCEVTHEGSTVTKTVKPSECS	169000 RLU
